# Source: US20250340631A1 (HARBOUR BIOMED SHANGHAI, published 2025)
# Key:
# human CLDN18.2 = biological target: T1, human CLDN18.2 (human); assay: FACS on HEK293/hCLDN18.2 cells
# T1 construct: the HEK293 line was made with a GenScript plasmid; also called hCLDN18.2
# Protocol: (§1) Antibodies were assayed for binding affinity by FACS. Test cells include HEK293/hCLDN18.2, HEK293/hCLDN18.1, NUGC4_D8 and Jurkat cells. […] The cell density was adjusted to 10⁶ cells/mL, and 50 μL of the cell suspension was added to each well of a 96-well plate. Antibodies were diluted to different concentrations with FACS buffer, and 50 μL of the antibody dilution was added to each well of the 96-well plate. After 2 h of incubation at 4° C., the plate was washed twice with FACS buffer. […] After 1 h of incubation at 4° C., the plate was washed twice with FACS buffer. The cells were resuspended in fixative solution, and then the fluorescence of the cells was monitored using an FACS instrument (ACEA NovoCyte).
# [1] = biological target: T2, human CD3 on Jurkat cells (human, UniProt P07766 23-207); assay: FACS on Jurkat cells (CD3)
# T2 construct: whole, on cells; on cells it stands in the whole CD3/TCR complex; also called CD3-expressing cells
# T2 sequence (P07766 23-207): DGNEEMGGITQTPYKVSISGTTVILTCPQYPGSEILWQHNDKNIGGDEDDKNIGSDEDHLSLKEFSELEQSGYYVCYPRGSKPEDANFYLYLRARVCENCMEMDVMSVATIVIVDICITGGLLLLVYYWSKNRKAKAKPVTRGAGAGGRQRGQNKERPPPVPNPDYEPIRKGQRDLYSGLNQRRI
# Protocol: as §1
binder,measurement,setting,value
"PR007083 (bispecific antibody, human IgG1, lambda, structure 1; CD3 Fab from PR003886; AAA) EVQLVESGGGLVQPGGSLRLSCAASGFTFSSYWMHWVRQVPGKGLVWVCRISSDASRTIYADSVKGRFTCSRDNAKNTLYLQMNSLRAEDTAVYYCARGEDHDILTGYPIRGQGTTVTVSSGGGGSGGGGSGGGGSEVQLVESGGGLVQPGGSLRLSCAASGFTFSSYWMHWVRQVPGKGLVWVCRISSDASRTIYADSVKGRFTCSRDNAKNTLYLQMNSLRAEDTAVYYCARGEDHDILTGYPIRGQGTTVTVSSASEPKSSDKTHTCPPCPAPEAAGAPSVFLFPPKPKDTLMISRTPEVTCVVVDVSHEDPEVKFNWYVDGVEVHNAKTKPREEQYNSTYRVVSVLTVLHQDWLNGKEYKCKVSNKALPAPIEKTISKAKGQPREPQVCTLPPSREEMTKNQVSLSCAVKGFYPSDIAVEWESNGQPENNYKTTPPVLDSDGSFFLVSKLTVDKSRWQQGNVFSCSVMHEALHNHYTQKSLSLSPGK heavy: EVQLVESGGGLVQPGGSLKLSCAASGFTFSTYAMNWVRQASGKGLEWVGRIRSKYNNYATYYADSVKDRFTISRDDSKNTAYLQMNSLKTEDTAVYYCTRHGNFGNSYVSWFAYWGQGTLVTVSSASTKGPSVFPLAPSSKSTSGGTAALGCLVKDYFPEPVTVSWNSGALTSGVHTFPAVLQSSGLYSLSSVVTVPSSSLGTQTYICNVNHKPSNTKVDKKVEPKSCDKTHTCPPCPAPEAAGAPSVFLFPPKPKDTLMISRTPEVTCVVVDVSHEDPEVKFNWYVDGVEVHNAKTKPREEQYNSTYRVVSVLTVLHQDWLNGKEYKCKVSNKALPAPIEKTISKAKGQPREPQVYTLPPCREEMTKNQVSLWCLVKGFYPSDIAVEWESNGQPENNYKTTPPVLDSDGSFFLYSKLTVDKSRWQQGNVFSCSVMHEALHNHYTQKSLSLSPGK light: QAVVTQEPSLTVSPGGTVTLTCRSSTGAVTTSNYANWVQQKPGQAPRGLIGGTNKRAPWTPARFSGSLLGDKAALTLLGAQPEDEAEYFCALWYSNLWVFGGGTKLTVLGQPKAAPSVTLFPPSSEELQANKATLVCLISDFYPGAVTVAWKADSSPVKAGVETTTPSKQSNNKYAASSYLSLTPEQWKSHRSYSCQVTHEGSTVEKTVAPTECS",EC50,human CLDN18.2,9.6 nM
same,binding result,[1],binds
